Data from the supplement of paper PMC10567573.

B1: HDAC6 (parent)
chain: YVHHQALLDVKNIAHQNKFGEDMP

Variants of: B1
Test: protein stability index of a GFP-peptide fusion (GPS, HEK-293T) (PSI 1-6); higher = more stable
Settings: c terminus: a fixed tail appended
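Also: lentivirally expressed fusions sorted by FACS into six bins by GFP to DsRed ratio, PSI derived from sequencing read proportions per bin multiplied by bin number.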

Question: Which protein stability index does the source give for YVHHQALLDVKFIAHQNKFGEDMP here?
Answer: The protein stability index was 2.65.

Question: For YVHHQALLDVKNIAHQNKFIEDMP, which protein stability index is on record?
Answer: The protein stability index was 1.88.

Question: With YVHHQALLDVKNIAHQNKFSEDMP as the variant, how does the protein stability index read?
Answer: The protein stability index was 1.82.

Question: For YVHHQALLDVKNIAHQNKFDEDMP, which protein stability index is on record?
Answer: Its protein stability index is 2.28.

Question: For YVHHQALLDVKNIAHQNKFLEDMP, which protein stability index is on record?
Answer: The protein stability index was 2.19.

Question: For YVHHQALLDVKNIAHQNKFAEDMP, which protein stability index is on record?
Answer: The protein stability index was 1.99.

Question: With YVHHQALLDVKNIAHQNKFFEDMP as the variant, how does the protein stability index read?
Answer: The protein stability index was 3.09.

Question: With YVHHQALLDVKNIAHQNKFEEDMP as the variant, how does the protein stability index read?
Answer: The protein stability index was 2.26.

Question: For YVHHQALLDVKNIAHQNKFTEDMP, which protein stability index is on record?
Answer: Its protein stability index is 1.91.

Question: Which protein stability index does the source give for YVHHQALLDVKNIAHQNKFNEDMP here?
Answer: The protein stability index was 1.96.

Question: Which protein stability index does the source give for YVHHQALLDVKNIAHQNKFCEDMP here?
Answer: The protein stability index was 1.83.

Question: Which protein stability index does the source give for YVHHQALLDVKNIAHQNKFPEDMP here?
Answer: Its protein stability index is 1.96.

Question: With YVHHQALLDVKNIAHQNKFREDMP as the variant, how does the protein stability index read?
Answer: Its protein stability index is 1.56.

Question: For YVHHQALLDVKNIAHQNKFQEDMP, which protein stability index is on record?
Answer: The protein stability index was 2.03.

Question: With YVHHQALLDVKNIAHQNKFWEDMP as the variant, how does the protein stability index read?
Answer: The protein stability index was 2.41.

Question: For YVHHQALLDVKNIAHQNKFKEDMP, which protein stability index is on record?
Answer: The protein stability index was 2.14.

Question: For YVHHQALLDVKNIAHQNKFMEDMP, which protein stability index is on record?
Answer: Its protein stability index is 2.35.

Question: For YVHHQALLDVKNIAHQNKFVEDMP, which protein stability index is on record?
Answer: Its protein stability index is 2.13.

Question: For YVHHQALLDVKNIAHQNKFHEDMP, which protein stability index is on record?
Answer: The protein stability index was 2.19.

Question: Which protein stability index does the source give for YVHHQALLDVKNIAHQNKFYEDMP here?
Answer: Its protein stability index is 2.58.

Question: Which protein stability index does the source give for YVHHQALLDVSNIAHQNKFGEDMP here?
Answer: Its protein stability index is 2.74.

Question: With YVHHQALLDVWNIAHQNKFGEDMP as the variant, how does the protein stability index read?
Answer: The protein stability index was 3.04.

Question: For YVHHQALLDVYNIAHQNKFGEDMP, which protein stability index is on record?
Answer: The protein stability index was 2.77.

Question: For YVHHQALLDVTNIAHQNKFGEDMP, which protein stability index is on record?
Answer: The protein stability index was 2.25.

Question: Which protein stability index does the source give for YVHHQALLDVVNIAHQNKFGEDMP here?
Answer: Its protein stability index is 1.41.

Question: For YVHHQALLDVKNIAHQNAFGEDMP, which protein stability index is on record?
Answer: Its protein stability index is 2.23.

Question: For YVHHQALLDVKNIAHQNRFGEDMP, which protein stability index is on record?
Answer: Its protein stability index is 2.88.

Question: Which protein stability index does the source give for YVHHQALLDVKNIAHQNVFGEDMP here?
Answer: Its protein stability index is 1.74.

Question: With YVHHQALLDVKNIAHQNCFGEDMP as the variant, how does the protein stability index read?
Answer: Its protein stability index is 1.37.

Question: Which protein stability index does the source give for YVHHQALLDVKNIAHQNPFGEDMP here?
Answer: Its protein stability index is 2.35.

Question: Which protein stability index does the source give for YVHHQALLDVKNIAHQNHFGEDMP here?
Answer: The protein stability index was 1.78.

Question: With YVHHQALLDVKNIAHQNEFGEDMP as the variant, how does the protein stability index read?
Answer: The protein stability index was 2.37.

Question: Which protein stability index does the source give for YVHHQALLDVKNIAHQNWFGEDMP here?
Answer: The protein stability index was 1.9.

Question: For YVHHQALLDVKNIAHQNYFGEDMP, which protein stability index is on record?
Answer: Its protein stability index is 2.2.

Question: For YVHHQALLDVKNIAHQNNFGEDMP, which protein stability index is on record?
Answer: Its protein stability index is 2.26.

Question: Which protein stability index does the source give for YVHHQALLDVKNIAHQNQFGEDMP here?
Answer: The protein stability index was 1.95.

Question: For YVHHQALLDVKNIAHQNSFGEDMP, which protein stability index is on record?
Answer: Its protein stability index is 1.49.

Question: With YVHHQALLDVKNIAHQNTFGEDMP as the variant, how does the protein stability index read?
Answer: Its protein stability index is 2.43.

Question: For YVHHQALLDVKNIAHQNDFGEDMP, which protein stability index is on record?
Answer: The protein stability index was 1.7.

Question: For YVHHQALLDVKNIAHQNGFGEDMP, which protein stability index is on record?
Answer: Its protein stability index is 2.58.

Question: For YVHHQALLDVKNIAHQNFFGEDMP, which protein stability index is on record?
Answer: The protein stability index was 1.9.

Question: With YVHHQALLDVKNIAHQNMFGEDMP as the variant, how does the protein stability index read?
Answer: Its protein stability index is 1.94.

Question: Which protein stability index does the source give for YVHHQALLDVKNIAHQNIFGEDMP here?
Answer: Its protein stability index is 2.15.

Question: With YVHHQALLDVKNIAHQNLFGEDMP as the variant, how does the protein stability index read?
Answer: Its protein stability index is 1.73.

Question: With YVHHQALLDVKNEAHQNKFGEDMP as the variant, how does the protein stability index read?
Answer: The protein stability index was 2.27.

Question: With YVHHQALLDVKNPAHQNKFGEDMP as the variant, how does the protein stability index read?
Answer: Its protein stability index is 2.17.

Question: For YVHHQALLDVKNSAHQNKFGEDMP, which protein stability index is on record?
Answer: Its protein stability index is 2.28.

Question: With YVHHQALLDVKNVAHQNKFGEDMP as the variant, how does the protein stability index read?
Answer: The protein stability index was 2.31.

Question: Which protein stability index does the source give for YVHHQALLDVKNAAHQNKFGEDMP here?
Answer: The protein stability index was 2.18.

Question: For YVHHQALLDVKNQAHQNKFGEDMP, which protein stability index is on record?
Answer: The protein stability index was 1.92.

Question: Which protein stability index does the source give for YVHHQALLDVKNRAHQNKFGEDMP here?
Answer: The protein stability index was 1.96.

Question: With YVHHQALLDVKNNAHQNKFGEDMP as the variant, how does the protein stability index read?
Answer: Its protein stability index is 1.98.

Question: With YVHHQALLDVKNYAHQNKFGEDMP as the variant, how does the protein stability index read?
Answer: The protein stability index was 1.95.

Question: With YVHHQALLDVKNCAHQNKFGEDMP as the variant, how does the protein stability index read?
Answer: Its protein stability index is 1.81.

Question: With YVHHQALLDVKNWAHQNKFGEDMP as the variant, how does the protein stability index read?
Answer: Its protein stability index is 2.16.

Question: Which protein stability index does the source give for YVHHQALLDVKNKAHQNKFGEDMP here?
Answer: The protein stability index was 2.

Question: With YVHHQALLDVKNMAHQNKFGEDMP as the variant, how does the protein stability index read?
Answer: The protein stability index was 2.47.

Question: Which protein stability index does the source give for YVHHQALLDVKNTAHQNKFGEDMP here?
Answer: Its protein stability index is 1.9.

Question: Which protein stability index does the source give for YVHHQALLDVKNFAHQNKFGEDMP here?
Answer: Its protein stability index is 1.94.

Question: With YVHHQALLDVKNHAHQNKFGEDMP as the variant, how does the protein stability index read?
Answer: The protein stability index was 1.95.

Question: Which protein stability index does the source give for YVHHQALLDVKNGAHQNKFGEDMP here?
Answer: Its protein stability index is 2.39.

Question: Which protein stability index does the source give for YVHHQALLDVKNDAHQNKFGEDMP here?
Answer: Its protein stability index is 2.77.

Question: With YVHHQALLDVKNLAHQNKFGEDMP as the variant, how does the protein stability index read?
Answer: The protein stability index was 1.77.

Question: For YVHHQALLDVKNIALQNKFGEDMP, which protein stability index is on record?
Answer: Its protein stability index is 1.91.

Question: Which protein stability index does the source give for YVHHQALLDVKNIANQNKFGEDMP here?
Answer: The protein stability index was 1.63.

Question: For YVHHQALLDVKNIAVQNKFGEDMP, which protein stability index is on record?
Answer: Its protein stability index is 2.08.

Question: For YVHHQALLDVKNIATQNKFGEDMP, which protein stability index is on record?
Answer: Its protein stability index is 1.59.

Question: For YVHHQALLDVKNIARQNKFGEDMP, which protein stability index is on record?
Answer: The protein stability index was 2.16.

Question: Which protein stability index does the source give for YVHHQALLDVKNIADQNKFGEDMP here?
Answer: The protein stability index was 2.2.

Question: With YVHHQALLDVKNIAMQNKFGEDMP as the variant, how does the protein stability index read?
Answer: Its protein stability index is 2.12.

Question: Which protein stability index does the source give for YVHHQALLDVKNIACQNKFGEDMP here?
Answer: The protein stability index was 1.7.

Question: Which protein stability index does the source give for YVHHQALLDVKNIAKQNKFGEDMP here?
Answer: The protein stability index was 2.35.

Question: Which protein stability index does the source give for YVHHQALLDVKNIAYQNKFGEDMP here?
Answer: The protein stability index was 1.43.

Question: For YVHHQALLDVKNIAGQNKFGEDMP, which protein stability index is on record?
Answer: The protein stability index was 1.51.

Question: With YVHHQALLDVKNIAQQNKFGEDMP as the variant, how does the protein stability index read?
Answer: Its protein stability index is 2.08.

Question: Which protein stability index does the source give for YVHHQALLDVKNIAPQNKFGEDMP here?
Answer: The protein stability index was 2.37.

Question: Which protein stability index does the source give for YVHHQALLDVKNIAEQNKFGEDMP here?
Answer: The protein stability index was 2.53.

Question: Which protein stability index does the source give for YVHHQALLDVKNIASQNKFGEDMP here?
Answer: The protein stability index was 1.75.

Question: For YVHHQALLDVKNIAAQNKFGEDMP, which protein stability index is on record?
Answer: Its protein stability index is 2.57.

Question: For YVHHQALLDVKNIAWQNKFGEDMP, which protein stability index is on record?
Answer: The protein stability index was 2.85.

Question: Which protein stability index does the source give for YVHHQALLDVKNIAFQNKFGEDMP here?
Answer: Its protein stability index is 1.51.

Question: With YVHHQALLDVKNIAIQNKFGEDMP as the variant, how does the protein stability index read?
Answer: The protein stability index was 1.77.

Question: For YVHHQALLDVKNIAHQNKFGLDMP, which protein stability index is on record?
Answer: The protein stability index was 1.72.

Question: Which protein stability index does the source give for YVHHQALLDVKNIAHQNKFGHDMP here?
Answer: The protein stability index was 1.46.

Question: With YVHHQALLDVKNIAHQNKFGIDMP as the variant, how does the protein stability index read?
Answer: Its protein stability index is 1.57.

Question: For YVHHQALLDVKNIAHQNKFGGDMP, which protein stability index is on record?
Answer: Its protein stability index is 2.14.

Question: With YVHHQALLDVKNIAHQNKFGFDMP as the variant, how does the protein stability index read?
Answer: Its protein stability index is 2.54.

Question: For YVHHQALLDVKNIAHQNKFGMDMP, which protein stability index is on record?
Answer: The protein stability index was 1.71.

Question: With YVHHQALLDVKNIAHQNKFGNDMP as the variant, how does the protein stability index read?
Answer: The protein stability index was 2.

Question: For YVHHQALLDVKNIAHQNKFGDDMP, which protein stability index is on record?
Answer: The protein stability index was 1.97.

Question: Which protein stability index does the source give for YVHHQALLDVKNIAHQNKFGPDMP here?
Answer: The protein stability index was 1.4.

Question: With YVHHQALLDVKNIAHQNKFGKDMP as the variant, how does the protein stability index read?
Answer: The protein stability index was 1.57.

Question: With YVHHQALLDVKNIAHQNKFGCDMP as the variant, how does the protein stability index read?
Answer: The protein stability index was 2.23.

Question: Which protein stability index does the source give for YVHHQALLDVKNIAHQNKFGADMP here?
Answer: Its protein stability index is 2.01.
